Earlier results in article PMC4452855.

Molecular target: IFN-λ1 (Homo sapiens) (UniProt Q8IU54)
Chain of UniProt Q8IU54 (Q8IU54 20-200): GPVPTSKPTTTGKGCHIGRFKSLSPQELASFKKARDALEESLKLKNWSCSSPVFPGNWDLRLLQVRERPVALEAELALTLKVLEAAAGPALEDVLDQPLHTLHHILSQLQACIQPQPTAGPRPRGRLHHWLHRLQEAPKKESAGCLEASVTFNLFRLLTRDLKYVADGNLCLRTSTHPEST

sIFN-λR1 short splice variant (from UniProt Q8IU57)
Kd: 73 nM
